Biological target: recombinant RNMT (RNA guanine-7 methyltransferase) (UniProt O43148 1-476)
Assay: cell-based or functional assay

recombinant RNMT (RNA guanine-7 methyltransferase), sequence (O43148 whole entry): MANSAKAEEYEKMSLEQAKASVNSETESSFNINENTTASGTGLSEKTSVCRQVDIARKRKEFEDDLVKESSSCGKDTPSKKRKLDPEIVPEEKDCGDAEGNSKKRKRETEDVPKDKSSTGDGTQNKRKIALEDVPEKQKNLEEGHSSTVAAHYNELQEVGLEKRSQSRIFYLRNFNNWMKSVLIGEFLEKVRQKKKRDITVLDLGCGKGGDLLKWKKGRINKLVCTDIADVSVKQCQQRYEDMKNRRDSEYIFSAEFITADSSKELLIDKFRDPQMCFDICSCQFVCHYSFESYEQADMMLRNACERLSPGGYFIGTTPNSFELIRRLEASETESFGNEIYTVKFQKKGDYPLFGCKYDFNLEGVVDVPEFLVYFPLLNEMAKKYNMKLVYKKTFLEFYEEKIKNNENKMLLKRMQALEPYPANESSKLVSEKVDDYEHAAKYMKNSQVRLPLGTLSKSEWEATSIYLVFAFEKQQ

- in vitro cap methyltransferase activity of 15 nM RNMT pre-incubated with 15 nM GST–RAM 1–55, compared with GST control: > 5 fold
B1: GST–RAM 1–55 (domain or fragment, human, UniProt Q9BTL3 1-55, looked up)
chain: MTDTAEAVPKFEEMFASRFTENDKEYQEYLKRPPESPPIVEEWNSRAGGNQRNRG

Source: article PMC3898117 (Biochemical Journal, 2013)
